In patent US20150023971A1:

What was measured:
[1] = molecular target: T1, …; experiment: SPOT length analysis, dot 5, HRP-S-protein detection
T1 sequence (peptide): IFRSSDFAKNFVQT

[2] = molecular target: T2, …; experiment: SPOT length analysis, dot 6, HRP-S-protein detection
T2 sequence (peptide): FRSSDFAKNFVQTD

[3] = molecular target: T3, …; experiment: SPOT length analysis, dot 7, HRP-S-protein detection
T3 sequence (peptide): RIFRSSDFAKNFV

[4] = molecular target: T4, …; experiment: SPOT length analysis, dot 16, HRP-S-protein detection
T4 sequence (peptide): RIFRSSDFAKN

[5] = molecular target: T5, …; experiment: SPOT length analysis, dot 17, HRP-S-protein detection
T5 sequence (peptide): IFRSSDFAKNF

[6] = molecular target: T6, …; experiment: SPOT length analysis, dot 23, HRP-S-protein detection
T6 sequence (peptide): IFRSSDFAKN

[7] = molecular target: T7, …; experiment: SPOT length analysis, dot 24, HRP-S-protein detection
T7 sequence (peptide): FRSSDFAKNF

[8] = molecular target: T8, …; experiment: SPOT length analysis, dot 27, HRP-S-protein detection
T8 sequence (peptide): SDFAKNFVQT

SSDFAKNF = molecular target: T9, SSDFAKNF; experiment: SPOT length analysis, dot 41, HRP-S-protein detection
T9 sequence (peptide): SSDFAKNF

SDFAKNFV = molecular target: T10, SDFAKNFV; experiment: SPOT length analysis, dot 42, HRP-S-protein detection
T10 sequence (peptide): SDFAKNFV

RIFRSSD [9] = molecular target: T11, RIFRSSD; experiment: SPOT length analysis, dot 46, HRP-S-protein detection
T11 sequence (peptide): RIFRSSD

DFAKNFV [10] = molecular target: T12, DFAKNFV; experiment: SPOT length analysis, dot 52, HRP-S-protein detection
T12 sequence (peptide): DFAKNFV

SDFAKN = molecular target: T13, SDFAKN; experiment: SPOT length analysis, dot 61, HRP-S-protein detection
T13 sequence (peptide): SDFAKN

RIFRS [11] = molecular target: T14, RIFRS; experiment: SPOT length analysis, dot 67, HRP-S-protein detection
T14 sequence (peptide): RIFRS

[12] = molecular target: T3, …; experiment: SPOT length analysis, dot 7, anti-histidine detection
DFAKN [13] = molecular target: T15, DFAKN; experiment: SPOT length analysis, dot 73, HRP-S-protein detection
T15 sequence (peptide): DFAKN

AKNFV [14] = molecular target: T16, AKNFV; experiment: SPOT length analysis, dot 75, HRP-S-protein detection
T16 sequence (peptide): AKNFV

FVQTD = molecular target: T17, FVQTD; experiment: SPOT length analysis, dot 78, HRP-S-protein detection
T17 sequence (peptide): FVQTD

[15] = molecular target: T18, …; experiment: SPOT length analysis, dot 8, anti-histidine detection
T18 sequence (peptide): IFRSSDFAKNFVQ

[16] = molecular target: T19, …; experiment: SPOT length analysis, dot 9, anti-histidine detection
T19 sequence (peptide): FRSSDFAKNFVQT

FVQT [17] = molecular target: T20, FVQT; experiment: SPOT length analysis, dot 90, HRP-S-protein detection
T20 sequence (peptide): FVQT

[18] = molecular target: T21, …; experiment: SPOT length analysis, dot 12, anti-histidine detection
T21 sequence (peptide): IFRSSDFAKNFV

[19] = molecular target: T4, …; experiment: SPOT length analysis, dot 16, anti-histidine detection
[20] = molecular target: T5, …; experiment: SPOT length analysis, dot 17, anti-histidine detection
[21] = molecular target: T6, …; experiment: SPOT length analysis, dot 23, anti-histidine detection
[22] = molecular target: T22, …; experiment: SPOT length analysis, dot 29, anti-histidine detection
T22 sequence (peptide): RIFRSSDFA

[23] = molecular target: T23, …; experiment: SPOT length analysis, dot 30, anti-histidine detection
T23 sequence (peptide): IFRSSDFAK

[24] = molecular target: T24, …; experiment: SPOT length analysis, dot 34, anti-histidine detection
T24 sequence (peptide): SDFAKNFVQ

[25] = molecular target: T25, sortilin peptide … on SPOT membrane; experiment: SPOT length analysis, dot 36, anti-histidine detection
T25 sequence (peptide, C-terminus anchored to the cellulose membrane through a beta-alanine linker): FAKNFVQTD

RSSDFAKN = molecular target: T26, RSSDFAKN; experiment: SPOT length analysis, dot 40, anti-histidine detection
T26 sequence (peptide): RSSDFAKN

DFAKNFVQ = molecular target: T27, DFAKNFVQ; experiment: SPOT length analysis, dot 43, anti-histidine detection
T27 sequence (peptide): DFAKNFVQ

AKNFVQTD = molecular target: T28, AKNFVQTD; experiment: SPOT length analysis, dot 45, anti-histidine detection
T28 sequence (peptide): AKNFVQTD

RIFRSSD [26] = molecular target: T11, RIFRSSD; experiment: SPOT length analysis, dot 46, anti-histidine detection
FRSSDFA = molecular target: T29, FRSSDFA; experiment: SPOT length analysis, dot 48, anti-histidine detection
T29 sequence (peptide): FRSSDFA

DFAKNFV [27] = molecular target: T12, DFAKNFV; experiment: SPOT length analysis, dot 52, anti-histidine detection
FRSSDF = molecular target: T30, FRSSDF; experiment: SPOT length analysis, dot 58, anti-histidine detection
T30 sequence (peptide): FRSSDF

SSDFAK = molecular target: T31, SSDFAK; experiment: SPOT length analysis, dot 60, anti-histidine detection
T31 sequence (peptide): SSDFAK

KNFVQT = molecular target: T32, KNFVQT; experiment: SPOT length analysis, dot 65, anti-histidine detection
T32 sequence (peptide): KNFVQT

RIFRS [28] = molecular target: T14, RIFRS; experiment: SPOT length analysis, dot 67, anti-histidine detection
DFAKN [29] = molecular target: T15, DFAKN; experiment: SPOT length analysis, dot 73, anti-histidine detection
AKNFV [30] = molecular target: T16, AKNFV; experiment: SPOT length analysis, dot 75, anti-histidine detection
NFVQT = molecular target: T33, NFVQT; experiment: SPOT length analysis, dot 77, anti-histidine detection
T33 sequence (peptide): NFVQT

AKNF = molecular target: T34, AKNF; experiment: SPOT length analysis, dot 87, anti-histidine detection
T34 sequence (peptide): AKNF

KNFV = molecular target: T35, KNFV; experiment: SPOT length analysis, dot 88, anti-histidine detection
T35 sequence (peptide): KNFV

FVQT [31] = molecular target: T20, FVQT; experiment: SPOT length analysis, dot 90, anti-histidine detection
FAKNFV = molecular target: T36, FAKNFV; experiment: SPOT length analysis, dot 63, anti-histidine detection
T36 sequence (peptide): FAKNFV

[32] = molecular target: T37, sortilin 4-mer peptide RIFR (length analysis); experiment: SPOT length analysis, dot 79, anti-histidine detection
T37 sequence (peptide, C-terminus anchored to the cellulose membrane through a beta-alanine linker): RIFR

[33] = molecular target: T38, sortilin peptide … (synthetic, soluble); experiment: SPOT length analysis, dot 11 (peptide here cellulose-bound), HRP-S-protein detection
T38 sequence (peptide): RIFRSSDFAKNF

[34] = molecular target: T38, sortilin peptide … (synthetic, soluble); experiment: SPOT length analysis, dot 11 (peptide here cellulose-bound), anti-histidine detection

B1: recombinant his-S-tagged pro-domain of human BDNF (residues Ala1-Arg110), from pET-30 Xa/LIC, E. coli (protein, not shown: small tags and cut ends)
chain: APMKEANIRGQGGLAYPGVRTHGTLESVNGPKAGSGLTSLADTFEHVIEELLDEDQKVRPNEENNKDADLYTSRVMLSSQVPLEPPLLFLLEEYKNYLDAANMSMRVRR
- BLU Sprotein [1]: 190000 BLU
- BLU Sprotein [2]: 38100 BLU
- BLU Sprotein [3]: 168000 BLU
- BLU Sprotein [4]: 63600 BLU
- BLU Sprotein [5]: 127000 BLU
- BLU Sprotein [6]: 29800 BLU
- BLU Sprotein [7]: 70400 BLU
- BLU Sprotein [8]: 19100 BLU
- BLU Sprotein (SSDFAKNF): 16300 BLU
- BLU Sprotein (SDFAKNFV): 15500 BLU
- BLU Sprotein (RIFRSSD [9]): 21500 BLU
- BLU Sprotein (DFAKNFV [10]): 17400 BLU
- BLU Sprotein (SDFAKN): 15600 BLU
- BLU Sprotein (RIFRS [11]): 137000 BLU
- BLU His [12]: 102000 BLU
- BLU Sprotein (DFAKN [13]): 15600 BLU
- BLU Sprotein (AKNFV [14]): 15900 BLU
- BLU Sprotein (FVQTD): 15100 BLU
- BLU His [15]: 41600 BLU
- BLU His [16]: 19700 BLU
- BLU Sprotein (FVQT [17]): 13600 BLU
- BLU His [18]: 45100 BLU
- BLU His [19]: 53000 BLU
- BLU His [20]: 40700 BLU
- BLU His [21]: 19700 BLU
- BLU His [22]: 43400 BLU
- BLU His [23]: 20800 BLU
- BLU His [24]: 18400 BLU
- BLU His [25]: 30800 BLU
- BLU His (RSSDFAKN): 18700 BLU
- BLU His (DFAKNFVQ): 15500 BLU
- BLU His (AKNFVQTD): 16000 BLU
- BLU His (RIFRSSD [26]): 20200 BLU
- BLU His (FRSSDFA): 16600 BLU
- BLU His (DFAKNFV [27]): 17300 BLU
- BLU His (FRSSDF): 17500 BLU
- BLU His (SSDFAK): 16100 BLU
- BLU His (KNFVQT): 15400 BLU
- BLU His (RIFRS [28]): 115000 BLU
- BLU His (DFAKN [29]): 17800 BLU
- BLU His (AKNFV [30]): 17500 BLU
- BLU His (NFVQT): 17300 BLU
- BLU His (AKNF): 14600 BLU
- BLU His (KNFV): 14900 BLU
- BLU His (FVQT [31]): 15600 BLU
- BLU His (FAKNFV): 142000 BLU
- BLU His [32]: 127000 BLU
- BLU Sprotein [33]: 166000 BLU
- BLU His [34]: 100000 BLU
